Patent US20240261378

Target: TRIM16 GST-fusion protein (substrate of the ULK1 kinase assay)

B1: Flag-ULK1 wt (protein)
chain: MEPGRGGTETVGKFEFSRKDLIGHGAFAVVFKGRHREKHDLEVAVKCINKKNLAKSQTLLGKEIKILKELKHENIVALYDFQEMANSVYLVMEYCNGGDLADYLHAMRTLSEDTIRLFLQQIAGAMRLLHSKGIIHRDLKPQNILLSNPAGRRANPNSIRVKIADFGFARYLQSNMMAATLCGSPMYMAPEVIMSQHYDGKADLWSIGTIVYQCLTGKAPFQASSPQDLRLFYEKNKTLVPTIPRETSAPLRQLLLALLQRNHKDRMDFDEFFHHPFLDASPSVRKSPPVPVPSYPSSGSGSSSSSSSTSHLASPPSLGEMQQLQKTLASPADTAGFLHSSRDSGGSKDSSCDTDDFVMVPAQFPGDLVAEAPSAKPPPDSLMCSGSSLVASAGLESHGRTPSPSPPCSSSPSPSGRAGPFSSSRCGASVPIPVPTQVQNYQRIERNLQSPTQFQTPRSSAIRRSGSTSPLGFARASPSPPAHAEHGGVLARKMSLGGGRPYTPSPQVGTIPERPGWSGTPSPQGAEMRGGRSPRPGSSAPEHSPRTSGLGCRLHSAPNLSDLHVVRPKLPKPPTDPLGAVFSPPQASPPQPSHGLQSCRNLRGSPKLPDFLQRNPLPPILGSPTKAVPSFDFPKTPSSQNLLALLARQGVVMTPPRNRTLPDLSEVGPFHGQPLGPGLRPGEDPKGPFGRSFSTSRLTDLLLKAAFGTQAPDPGSTESLQEKPMEIAPSAGFGGSLHPGARAGGTSSPSPVVFTVGSPPSGSTPPQGPRTRMFSAGPTGSASSSARHLVPGPCSEAPAPELPAPGHGCSFADPITANLEGAVTFEAPDLPEETLMEQEHTEILRGLRFTLLFVQHVLEIAALKGSASEAAGGPEYQLQESVVADQISLLSREWGFAEQLVLYLKVAELLSSGLQSAIDQIRAGKLCLSSTVKQVVRRLNELYKASVVSCQGLSLRLQRFFLDKQRLLDRIHSITAERLIFSHAVQMVQSAALDEMFQHREGCVPRYHKALLLLEGLQHMLSDQADIENVTKCKLCIERRLSALLTGICA
in vitro phosphorylation (γ32P ATP, autoradiography), wt vs kinase-dead K46I ULK1: comparing active vs. kinase dead ULK1 we established that TRIM16 was a substrate for ULK1 phosphorylation
